Source: patent US20250009878A1

Biological target: WT MCT1/BSG-2 complex (mouse) (mouse) (UniProt P53986)
Test: cell-based or functional assay

Sequence of UniProt P53986 (P53986 whole entry, chain 1 of 2): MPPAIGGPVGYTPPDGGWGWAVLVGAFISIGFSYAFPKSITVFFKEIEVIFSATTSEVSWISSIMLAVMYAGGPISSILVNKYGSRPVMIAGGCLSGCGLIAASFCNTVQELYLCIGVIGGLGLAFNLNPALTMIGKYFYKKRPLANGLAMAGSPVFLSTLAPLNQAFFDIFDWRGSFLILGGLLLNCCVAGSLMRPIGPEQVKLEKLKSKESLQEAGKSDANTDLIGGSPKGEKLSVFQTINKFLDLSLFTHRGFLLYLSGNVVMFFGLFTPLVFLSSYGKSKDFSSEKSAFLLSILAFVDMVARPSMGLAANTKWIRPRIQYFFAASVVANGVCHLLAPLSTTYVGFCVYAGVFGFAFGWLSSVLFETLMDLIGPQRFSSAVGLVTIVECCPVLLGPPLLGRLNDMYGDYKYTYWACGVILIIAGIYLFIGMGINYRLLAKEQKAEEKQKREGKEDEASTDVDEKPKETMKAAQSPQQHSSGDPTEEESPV
Sequence of UniProt P53986 (P18572 other isoform, or with tags, fused parts or gaps, chain 2 of 2, further chain): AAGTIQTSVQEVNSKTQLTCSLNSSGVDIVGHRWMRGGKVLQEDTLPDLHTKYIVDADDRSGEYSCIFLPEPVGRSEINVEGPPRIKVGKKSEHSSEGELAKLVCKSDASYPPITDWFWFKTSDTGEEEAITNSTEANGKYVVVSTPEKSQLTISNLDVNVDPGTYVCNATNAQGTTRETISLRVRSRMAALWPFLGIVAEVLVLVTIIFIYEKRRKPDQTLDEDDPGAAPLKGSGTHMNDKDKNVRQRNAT

B1: WZHAb10 (antibody, human IgG1, kappa, V domains shown)
VH: QVQLVQSGAEVKKPGASVKVSCKASGYTFTNYWIHWVRQAPGQGLEWMGMIHPNSGSINYNEKFKTRVTMTRDTSTSTVYMELSSLRSEDTAVYYCARVGSGSLDYWGQGTLVTVSS
VL: EIVLTQSPATLSLSPGERATLSCRASQSISDYLHWYQQKPGQAPRLLIKYVSQSISGIPARFSGSGSGTYFTLTISSLEPEDVAVYYCQNGEEAPYTFGQGTKLEIKR
decrease in transport activity (H+ influx, HPTS proteoliposome flux assay): 75%
